Tested on: Ca^2+/CaM
Assay: gel mobility shift assay of BR biosynthetic proteins
Assay type: binding, potato
Settings: FIG. 5
Description: PCM1: potato calmodulin 1; PCM6: potato calmodulin 6. Sequences of respective CaMBD are also shown: N-DWF4 (SEQ ID NO:18); C-DWF4 (SEQ ID NO:19); CPD (SEQ ID NO:17); and DWF5 (SEQ ID NO:20).
DWF1Ca^2+ is an important second messenger and an integral part of the cellular signalling system in plants^5,29. Applicants were thus prompted to survey the CaM-binding properties of other proteins involved in brassinosteroid biosynthesis.

B1: CPD: Arabidopsis CPD (AT5G05690), cytochrome P450 90A1 (protein, listed as Arabidopsis thaliana)
chain: MAFTAFLLLLSSIAAGFLLLLRRTRYRRMGLPPGSLGLPLIGETFQLIGAYKTENPEPFIDERVARYGSVFMTHLFGEPTIFSADPETNRFVLQNEGKLFECSYPASICNLLGKHSLLLMKGSLHKRMHSLTMSFANSSIIKDHLMLDIDRLVRFNLDSWSSRVLLMEEAKKITFELTVKQLMSFDPGEWSESLRKEYLLVIEGFFSLPLPLFSTTYRKAIQARRKVAEALTVVVMKRREEEEEGAERKKDMLAALLAADDGFSDEEIVDFLVALLVAGYETTSTIMTLAVKFLTETPLALAQLKEEHEKIRAMKSDSYSLEWSDYKSMPFTQCVVNETLRVANIIGGVFRRAMTDVEIKGYKIPKGWKVFSSFRAVHLDPNHFKDARTFNPWRWQSNSVTTGPSNVFTPFGGGPRLCPGYELARVALSVFLHRLVTGFSWVPAEQDKLVFFPTTRTQKRYPIFVKRRDFAT
- Ca^2+/CaM binding: Ca^2+/CaM-binding proteins

From patent US20070089183A1, “Size and/or growth engineering by modulation of the interaction between calmodulin, and brassinosteroid biosynthetic enzymes and orthologs therof” (Washington State University, priority 2005, published 2007)
